Laboratory results taken from PMC3232311 (Biochemistry, 2011).

Target: the molecule itself
Assay: SEC

B1: Mycobacterium smegmatis mycothiol S-transferase (MSMEG_0887), native enzyme (enzyme, UniProt A0QQV2 1-185, looked up)
chain: MTAREPTTKTSTGSVNESAAVRELLRDAFTRLIEHVDDLTDGLTEEVSSYRPTPEANSIAWLLWHSARCQDMQLCDIAGVEQVWTRDGWIDRFDLGLPPDDIGYGHSPEEVAKVQAPAELLAGYYHAVHKVTLEYIATVTPGEMDRVVDTNWNPPVTASARLISIIDDCAQHLGQAAYLRGIIPR
- stoichiometry N: 2
